Consider eight sequences from the Immune Epitope Database (IEDB).

Some results are limits rather than exact numbers.

The target in one experiment is HLA-C*15:02. Briefly: IEDB peptide-MHC binding, purified MHC/direct/fluorescence; filed as Kd, often an IC50 or EC50 that approximates it; ≥ and ≤ were set here for values at or beyond the usual limits of such assays. The note with it: source organism: Bacillus anthracis str. A2012.
For the next experiment, the target named is HLA-C*12:03. Described as above. The note with it: source organism: Bacillus anthracis str. A2012.
The target in the next experiment is HLA-C*14:02. The experiment is described as above. The note with it: source organism: Bacillus anthracis str. A2012.
A further experiment has as its target HLA-C*06:02. The description is as above. The note with it: source organism: Bacillus anthracis str. A2012.
The next experiment concerns the target HLA-C*07:02. The experiment is described as above. The note with it: source organism: Bacillus anthracis str. A2012.
The next experiment concerns the target HLA-C*03:03. Described as above. To be noted: source organism: Bacillus anthracis str. A2012.
A further experiment concerns the target HLA-B*46:01. The experiment is described as follows: IEDB peptide-MHC binding, purified MHC/competitive/fluorescence; filed as Kd, often an IC50 or EC50 that approximates it; ≥ and ≤ were set here for values at or beyond the usual limits of such assays.
The next experiment has as its target HLA-B*15:02. The experiment is described as above.
The next experiment addresses HLA-B*39:01. The experiment is described as above.
Another experiment has as its target HLA-A*26:01. The description is as above.
In a further experiment the target is HLA-A*68:02. Described as above.
A further experiment deals with HLA-B*57:01. Described as above.
Another experiment concerns the target HLA-A*02:16. The experiment is described as above.
The next experiment has as its target HLA-A*69:01. The experiment is described as above.
The target of another experiment is HLA-A*02:01. Described as above.
For a further experiment, the target named is HLA-B*51:01. The experiment is described as above.
In another experiment the target is HLA-B*18:01. The experiment is described as above.
The next experiment deals with HLA-B*15:01. The description is as above.
The target in a further experiment is HLA-A*02:03. Described as above.
In another experiment the target is HLA-A*02:12. The description is as above.
In a further experiment the target is HLA-B*15:17. The description is as above. To be noted: source organism: Brucella suis ATCC 23445.
For a further experiment, the target named is HLA-A*24:03. The experiment is described as above.
The target of another experiment is HLA-B*27:03. The description is as above.
For another experiment, the target named is HLA-A*29:02. The experiment is described as above. The note with it: source organism: Brucella suis ATCC 23445.
For the next experiment, the target named is HLA-A*02:19. The description is as above.
The target of the next experiment is HLA-A*02:11. The description is as above.
In the next experiment the target is HLA-A*03:01. The experiment is described as above.
For the next experiment, the target named is HLA-A*02:06. Described as above. To be noted: source organism: Human immunodeficiency virus 1.
[1] abbreviates: source organism: Bacillus anthracis str. A2012.
The mark [2] stands for this setting: source organism: Brucella suis ATCC 23445.
The mark [3] stands for this setting: source organism: Human immunodeficiency virus 1.
Setting [4] is: source organism: Escherichia coli HS.

A word on the Kd: it is the concentration at which binding is half-saturated. SMFDSWGPF: the Kd was no less than 20000 nM with HLA-C*15:02; 102 nM in the experiment with HLA-C*12:03; 185 nM with HLA-C*14:02; no less than 20000 nM in the experiment with HLA-C*06:02; 224 nM in the experiment with HLA-C*07:02; no less than 20000 nM with HLA-C*03:03. The dissociation constant (Kd) in the experiment with HLA-B*46:01 (setting [1]) was 4.3 nM; with HLA-B*15:02 (setting [1]) it was 5 nM.

Regarding ITAVNRYFK, the Kd in the experiment with HLA-B*39:01 (setting [2]), with HLA-A*26:01 (setting [2]), in the experiment with HLA-A*68:02 (setting [2]), in the experiment with HLA-B*57:01 (setting [2]), with HLA-A*02:16 (setting [2]) and in the experiment with HLA-A*69:01 (setting [2]) was no less than 20000 nM in each case. Also, the Kd with HLA-A*02:01 (setting [2]), in the experiment with HLA-B*51:01 (setting [2]), with HLA-B*46:01 (setting [2]), with HLA-B*18:01 (setting [2]), with HLA-B*15:01 (setting [2]) and with HLA-A*02:03 (setting [2]) was no less than 20000 nM throughout. In addition, the equilibrium dissociation constant (Kd) is no less than 20000 nM with HLA-A*02:12 (setting [2]); no less than 20000 nM with HLA-B*15:17; no less than 20000 nM with HLA-A*24:03 (setting [2]); no less than 20000 nM with HLA-B*27:03 (setting [2]); 757 nM with HLA-A*29:02; no less than 20000 nM in the experiment with HLA-A*02:19 (setting [2]). Also, the Kd in the experiment with HLA-A*02:11 (setting [2]) was no less than 20000 nM; with HLA-A*03:01 (setting [2]) it was 57 nM.

Turning to KMGKAGYVT, the dissociation constant Kd is 261 nM with HLA-A*02:16 (setting [3]); no less than 20000 nM in the experiment with HLA-A*69:01 (setting [3]); 323 nM with HLA-A*02:01 (setting [3]); 196 nM in the experiment with HLA-A*02:03 (setting [3]); 1210 nM with HLA-A*02:12 (setting [3]); 609 nM with HLA-A*02:06. The Kd with HLA-A*02:19 (setting [3]) was found to be 6000 nM; with HLA-A*02:11 (setting [3]), 24.5 nM.

As for FLRSSSAIE, in the experiment with HLA-B*15:02 (source organism: Coxiella burnetii Dugway 5J108-111), the Kd was no less than 20000 nM.

ISLWGSLLK: the Kd with HLA-B*39:01 (setting [4]), in the experiment with HLA-A*26:01 (setting [4]), in the experiment with HLA-A*68:02 (setting [4]), with HLA-B*57:01 (setting [4]), in the experiment with HLA-A*02:16 (setting [4]) and in the experiment with HLA-A*69:01 (setting [4]) was no less than 20000 nM in each case. In addition, the Kd in the experiment with HLA-A*02:01 (setting [4]), with HLA-B*51:01 (setting [4]), with HLA-B*46:01 (setting [4]), with HLA-B*18:01 (setting [4]), with HLA-B*15:01 (setting [4]) and with HLA-A*02:12 (setting [4]) was no less than 20000 nM each time. Also, the dissociation constant (Kd) was no less than 20000 nM in the experiment with HLA-A*24:03 (setting [4]), no less than 20000 nM with HLA-B*27:03 (setting [4]), no less than 20000 nM with HLA-A*02:19 (setting [4]) and 33.9 nM with HLA-A*03:01 (setting [4]).

Regarding WIGQTSHGW, the Kd with HLA-B*15:02 (source organism: Vibrio cholerae) was no less than 20000 nM.

Take GQRDTDVPY: the Kd with HLA-B*15:02 (source organism: Yersinia enterocolitica subsp. enterocolitica 8081) stood at 1240 nM.

Consider ALVEMGHHV, for which the Kd worked out at 3.07 nM with HLA-A*02:16 (setting [3]); 2010 nM with HLA-A*69:01 (setting [3]); 334 nM in the experiment with HLA-A*02:01 (setting [3]); 3.64 nM with HLA-A*02:03 (setting [3]); 17.5 nM with HLA-A*02:12 (setting [3]); 1.18 nM with HLA-A*02:06. Moreover, the Kd with HLA-A*02:19 (setting [3]) is 134 nM; in the experiment with HLA-A*02:11 (setting [3]), 1.8 nM.
